Assay [1] concerns the target human CD137 (4-1BB) on cells (human, UniProt Q07011 24-255). The assay is described as follows: cell-based or functional assay.
For assay [2], the target named is T1, Human CD3eg linker (human).
T1 construct: CD3 epsilon and gamma subunits joined by a 29-mer linker, C-terminal Flag-tag (in the entry); also called recombinant human CD3
T1 chain: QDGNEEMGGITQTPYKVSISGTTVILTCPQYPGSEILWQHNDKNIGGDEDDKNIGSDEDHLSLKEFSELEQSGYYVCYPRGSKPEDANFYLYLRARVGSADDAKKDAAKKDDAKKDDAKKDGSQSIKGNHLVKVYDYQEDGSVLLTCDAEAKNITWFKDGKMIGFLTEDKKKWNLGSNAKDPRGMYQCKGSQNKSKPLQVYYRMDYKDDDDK
The assay is described as follows: SPR Biacore T200, 25 C, Ab captured.
Experimental: (§1) Anti-human Fc (GE Healthcare) was immobilized onto all flow cells of a CM4 sensor chip using amine coupling kit (GE Healthcare). […] All antibodies and analytes were prepared in ACES pH 7.4 containing 20 mM ACES, 150 mM NaCl, 0.05% Tween 20, 0.005% NaN3. Sensor surface was regenerated each cycle with 3M MgCl2.

Assay [3] has as its target T2, Human CD137 ECD (human).
T2 construct: C-terminal His-tag and biotin acceptor peptide are in the entry; also called human CD137 extracellular domain; recombinant human CD137
The assay is described as follows: SPR Biacore T200, 37 C, Ab captured. In general terms: Surface plasmon resonance follows binding to a sensor surface in real time, without labels.
Experimental: as §1

The target in assay [4] is T3, biotinylated CD3 epsilon epitope peptide.
T3 construct: immobilised on CM5 chip via streptavidin
The assay is described as follows: SPR Biacore, method of Ref. Ex. 12.6.

Assay [5] concerns the target T4, cyno CD137-Fc (cynomolgus monkey; human, biotin-labeled).
T4 construct: whole entry named; also called biotin-labeled cynomolgus monkey CD137 fused to human IgG1 Fc fragment; not shown: human IgG1 Fc fragment
T4 chain: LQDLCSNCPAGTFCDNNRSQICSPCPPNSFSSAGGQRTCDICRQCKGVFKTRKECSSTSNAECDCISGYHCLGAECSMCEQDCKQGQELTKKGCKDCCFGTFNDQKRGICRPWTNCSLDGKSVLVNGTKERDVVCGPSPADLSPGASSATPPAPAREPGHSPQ
The assay is described as follows: bead ELISA.

Substitutions are numbered along the chain they refer to. Values joined by “and” are separate entries in the source; they are usually repeats but may differ in a detail not shown here. Equal entries are not always repeated.

Sequence of human CD137 (4-1BB) on cells (Q07011 24-255): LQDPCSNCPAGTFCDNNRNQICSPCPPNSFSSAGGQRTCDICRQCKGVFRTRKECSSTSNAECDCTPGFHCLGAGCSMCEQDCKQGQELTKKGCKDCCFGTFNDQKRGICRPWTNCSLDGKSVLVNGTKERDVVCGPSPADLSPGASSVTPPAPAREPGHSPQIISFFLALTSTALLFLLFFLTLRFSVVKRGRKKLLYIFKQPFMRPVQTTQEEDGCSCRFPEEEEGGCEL
T2 sequence (chain, as listed by the source limits assumed): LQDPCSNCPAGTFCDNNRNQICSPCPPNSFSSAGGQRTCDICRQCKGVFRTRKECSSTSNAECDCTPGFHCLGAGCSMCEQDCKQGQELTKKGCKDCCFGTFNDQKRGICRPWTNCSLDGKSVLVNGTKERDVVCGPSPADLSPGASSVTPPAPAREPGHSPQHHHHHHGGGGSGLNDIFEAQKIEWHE

B1: GPC3 ERY22-dBBDu_189/L119 (bispecific antibody, human IgG1, kappa, L234A L235A, N297A)
heavy 1: DIVMTQSPLSLPVTPGEPASISCRSSQSLVHSNRNTYLHWYQQKPGQAPRLLIYKVSNRFSGVPDRFSGSGSGTDFTLKISRVEAEDVGVYYCSQNTHVPPTFGQGTKLEIKSSASTKGPSVFPLAPSSKSTSGGTAALGCLVKDYFPEPVTVSWNSGALTSGVHTFPAVLQSSGLYSLSSVVTVPSSSLGTQTYICNVNHKPSNTKVDKKVEPKSCDKTHTCPPCPAPEAAGGPSVFLFPPKPKDTLMISRTPEVTCVVVDVSHEDPEVKFNWYVDGVEVHNAKTKPREEQYASTYRVVSVLTVLHQDWLNGKEYKCKVSNKALPAPIEKTISKAKGQPREPQVCTLPPSRDELTKNQVSLWCLVKGFYPSDIAVEWESNGQPENNYKTTPPVLDSDGSFFLYSKLTVDKSRWQQGNVFSCSVMHEALHNHYTQKSLSLSPHHHHHHHH
light 1: QVQLVQSGAEVKKPGASVKVSCKASGYTFTDYEMHWIRQPPGQGLEWIGAIDPKTGDTAYSQKFKGRVTLTADKSTSTAYMELSSLTSEDTAVYYCTRFYSYTYWGQGTLVTVSSASVAAPSVFIFPPSDEQLKSGTASVVCLLNNFYPREAKVQWKVDNALQSGNSQESVTEQDSKDSTYSLSSTLTLSKADYEKHKVYACEVTHQGLSSPVTKSFNRGEC
heavy 2: QVQLVESGGGLVQPGRSLRLSCAASGFTFSNAWMHWVRQAPGKGLEWIAQIKDRSNQYATYYAPSVKGRFTISRDDSKNSIYLQMNSLKTEDTAVYYCHYVHYAQASSLLPSFGVDAWGQGTTVTVSSASTKGPSVFPLAPSSKSTSGGTAALGCLVKDYFPEPVTVSWNSGALTSGVHTFPAVLQSSGLYSLSSVVTVPSSSLGTQTYICNVNHKPSNTKVDKKVEPKSCDKTHTCPPCPAPEAAGGPSVFLFPPKPKDTLMISRTPEVTCVVVDVSHEDPEVKFNWYVDGVEVHNAKTKPREEQYASTYRVVSVLTVLHQDWLNGKEYKCKVSNKALPAPIEKTISKAKGQPREPQVYTLPPSRCELTKNQVSLSCAVKGFYPSDIAVEWESNGQPENNYKTTPPVLDSDGSFFLVSKLTVDKSRWQQGNVFSCSVMHEALHNHYTQKSLSLSPDYKDDDDK
light 2: DIVMTQSPLSLPVTPGEPASISCTASQELVHINRFIFLHWYQQKPGQAPRLLIYKVSNRFIGVPDRFSGSGSGTDFTLKISRVEAEDVGVYYCAQGSQVPFTFGQGTKLEIKRTVAAPSVFIFPPSDEQLKSGTASVVCLLNNFYPREAKVQWKVDNALQSGNSQESVTEQDSKDSTYSLSSTLTLSKADYEKHKVYACEVTHQGLSSPVTKSFNRGEC
For B1, in assay [1], the “Agonistic activity compared to B, 6 ug/mL” value worked out at 6.92%; the “Agonistic activity compared to B, 30 ug/mL” value stood at 20.4%; the “Agonistic activity compared to Ctrl, 6 ug/mL” value turned out to be 24%; the “Agonistic activity compared to Ctrl, 30 ug/mL” value is 77.3%. Moreover, in assay [1], the “hIL-6 (pg/mL), 6 ug/mL antibody” value was 1260 pg/mL and the “hIL-6 (pg/mL), 30 ug/mL antibody” value was found to be 1610 pg/mL.

B2: H0868L0581 (antibody, V domains shown)
VH: QVQLVESGGGLVQPGRSLRLSCAASGFKFSNVWMHWVRQAPGKGLEWVAQIKDKYNAYAAYYAPSVKGRFTISRDDSKNSIYLQMNSLKTEDTAVYYCHYVHYASASTLLPAFGVDAWGQGTTVTVSS
VL: DIVMTQSPLSLPVTPGEPASISCQPSQEVVHMNRNTYLHWYQQKPGQAPRLLIYKVSNRFPGVPDRFSGSGSGTDFTLKISRVEAEDVGVYYCAQGTSHPFTFGQGTKLEIK
With B2, the Kd (commonly the constant that tells how readily two partners part at equilibrium) in assay [2] was determined as 173 nM; in assay [3], 108 nM.

B3: CE115HA340 (antibody, human IgG1, L234A L235A, N297A, V domains shown)
VH: QVQLVESGGGLVQPGRSLRLSCAASGFTFSNAWMHWVRQAPGKGLEWVAQIKDKSNNYATYYAESVKGRFTISRDDSKNSIYLQMNSLKTEDTAVYYCRYVHYAAYYGVDAWGQGTTVTVSS
VL: B2 VL with Q24R, P25S, E28S, V29L, M32S, P61S, A94G, S98Q, H99V, F101Y
As for B3, the Kd in assay [4] was 20 nM and 27 nM.

B4: DADU01_3#001 (antibody, V domains shown)
VH: QVQLVESGGGLVQPGRSLRLSCAASGFTFSIAWMHWVRQAPGKGLEWVAQIKDRVNAYEAYYAPSVKGRFTISRDDSKNSIYLQMNSLKTEDTAVYYCRYVHYASYYDLLGYGGVDAWGQGTTVTVSS
VL: B2 VL with Q24R, P25S, E28S, V29L, M32S, P61S, A94G, S98Q, H99V, F101Y
notes: also called dBBDu_126; dBBDu126
On to B4, for which the binding result in assay [5] is on record as “no binding”.

B5: H1579L0581 (antibody, V domains shown)
VH: B2 VH with N31H, M34F
VL: B2 VL
On to B5, for which the dissociation constant (Kd) in assay [2] came out at 273 nM; in assay [3] it was 275 nM.

B6: H1647L0581 (antibody, V domains shown)
VH: B2 VH with V32T, M34F, K54Y, A57D, F113E
VL: B2 VL
notes: also called H1647L0581 (CD137); Anti-CD137 variant
As to B6, in assay [3], the dissociation constant (Kd) is 60.5 nM.

B7: H1595L0581 (antibody, V domains shown)
VH: B2 VH with V32T, V101I
VL: B2 VL
Take B7: the dissociation constant Kd in assay [2] came to 57 nM; in assay [3], 195 nM.

B8: H1572L0581 (antibody, V domains shown)
VH: B2 VH with M34F, F113E
VL: B2 VL
For B8, the Kd in assay [2] worked out at 286 nM; in assay [3] it was 52.1 nM.

B9: H0883 (antibody, V domains shown)
VH: B2 VH with K28T, V32A, Y55G, H99R
VL: B2 VL with P25A, V29L, H99V
notes: also called H0883 (CD3); H883
Molecule B9 displayed an equilibrium dissociation constant (Kd) in assay [2] of 110 nM. This counts as sub-micromolar.

B10: H1571L0581 (antibody, V domains shown)
VH: B2 VH with M34F, A60T
VL: B2 VL
On to B10, for which the Kd in assay [2] is 123 nM; in assay [3], 85 nM.

B11: H1673L0943 (antibody, V domains shown)
VH: B2 VH with K28V, M34F, Y55W, A60D, G68E, V101I, F113E, V115I
VL: B2 VL with Q27E, R59L, S98H
With B11, the equilibrium dissociation constant (Kd) in assay [2] was found to be 24.6 nM; in assay [3], 56.5 nM.

B12: H1573L0581 (antibody, V domains shown)
VH: B2 VH with M34F, K54Y
VL: B2 VL
For the molecule B12, the Kd in assay [2] worked out at 156 nM; in assay [3] it was 70.6 nM.

B13: H0888L0581 (antibody, V domains shown)
VH: B2 VH with Y55W, V101I, V115I
VL: B2 VL
notes: Dual-Ig, captured by anti-human Fc; also called dBBDu183H0888/dBBDu072L0581
Turning to B13, the Kd in assay [2] was found to be 20.2 nM; in assay [3], 208 nM.

B14: H1643L0581 (antibody, V domains shown)
VH: B2 VH with M34F, K54Y, F113E
VL: B2 VL
notes: also called H1643L581; Dual
Regarding B14, the dissociation constant Kd was 288 nM in assay [2] and 47.9 nM in assay [3].

The values above are taken from patent publication US20220112296A1 (Chugai, published 2022).
